Laboratory results from patent US20250262316A1 (BIO THERA SOLUTIONS, published 2025).

Assays:
[1] = target: T1, Lag3 (NCBI Reference Sequence: NP_002277.4) on Lag3-CHO cells (UniProt P18627 23-525, limits assumed); test: flow cytometry on Lag3-CHO cells
T1 construct: whole, on cells
T1 sequence (looked up): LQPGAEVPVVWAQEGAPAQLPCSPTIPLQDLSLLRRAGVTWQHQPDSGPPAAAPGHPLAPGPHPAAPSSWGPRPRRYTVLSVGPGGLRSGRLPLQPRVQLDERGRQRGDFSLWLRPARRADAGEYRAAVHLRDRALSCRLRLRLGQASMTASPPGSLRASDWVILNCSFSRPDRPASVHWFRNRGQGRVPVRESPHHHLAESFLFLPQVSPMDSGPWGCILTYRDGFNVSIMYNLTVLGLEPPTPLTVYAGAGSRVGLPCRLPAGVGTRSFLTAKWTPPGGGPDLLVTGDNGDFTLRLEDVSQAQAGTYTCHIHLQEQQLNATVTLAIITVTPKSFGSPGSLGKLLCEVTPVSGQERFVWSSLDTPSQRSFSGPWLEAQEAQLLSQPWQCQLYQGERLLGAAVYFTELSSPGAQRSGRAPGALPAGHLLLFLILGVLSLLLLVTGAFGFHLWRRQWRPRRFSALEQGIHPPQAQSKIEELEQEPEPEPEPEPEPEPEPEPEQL

[2] = target: T2, Tim3 (NCBI Reference Sequence: NP_116171.3) on Tim3-CHO cells (UniProt Q8TDQ0 22-301, limits assumed); test: flow cytometry on Tim3-CHO cells
T2 construct: whole, on cells

[3] = target: T3, VISTA (NCBI Reference Sequence: NP_071436.1) on VISTA-CHO cells (UniProt Q9H7M9 33-311, limits assumed); test: flow cytometry on VISTA-CHO cells
T3 construct: whole, on cells

[4] = target: T4, B7-H3 on MDA-MB-468 cells (human, UniProt Q5ZPR3); test: flow cytometry on MDA-MB-468 cells; blank V2-R 0.9%
T4 construct: endogenous, on the cell surface
T4 sequence (cell surface antigen, looked up): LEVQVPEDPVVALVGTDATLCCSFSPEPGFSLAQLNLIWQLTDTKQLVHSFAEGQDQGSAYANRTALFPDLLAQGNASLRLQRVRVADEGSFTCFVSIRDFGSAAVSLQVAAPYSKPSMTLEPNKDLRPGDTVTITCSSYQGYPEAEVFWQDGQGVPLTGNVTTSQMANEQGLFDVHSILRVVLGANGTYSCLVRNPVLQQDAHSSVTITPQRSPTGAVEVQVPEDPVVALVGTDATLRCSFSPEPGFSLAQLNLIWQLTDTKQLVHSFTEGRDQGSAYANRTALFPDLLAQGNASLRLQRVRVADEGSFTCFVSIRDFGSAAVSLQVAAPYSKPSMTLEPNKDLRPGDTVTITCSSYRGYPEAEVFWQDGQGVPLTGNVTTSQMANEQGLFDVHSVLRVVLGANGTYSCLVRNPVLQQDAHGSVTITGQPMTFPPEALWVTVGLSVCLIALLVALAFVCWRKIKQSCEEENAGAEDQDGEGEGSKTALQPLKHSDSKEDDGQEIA

antigen hB7-H3-His [5] = target: T5, antigen hB7-H3-His (human, UniProt Q5ZPR3 29-461); test: ELISA, antigen coated at 2 µg/mL, anti-human kappa light chain HRP detection
T5 construct: residues 1-28 are left out on that ground
T5 sequence: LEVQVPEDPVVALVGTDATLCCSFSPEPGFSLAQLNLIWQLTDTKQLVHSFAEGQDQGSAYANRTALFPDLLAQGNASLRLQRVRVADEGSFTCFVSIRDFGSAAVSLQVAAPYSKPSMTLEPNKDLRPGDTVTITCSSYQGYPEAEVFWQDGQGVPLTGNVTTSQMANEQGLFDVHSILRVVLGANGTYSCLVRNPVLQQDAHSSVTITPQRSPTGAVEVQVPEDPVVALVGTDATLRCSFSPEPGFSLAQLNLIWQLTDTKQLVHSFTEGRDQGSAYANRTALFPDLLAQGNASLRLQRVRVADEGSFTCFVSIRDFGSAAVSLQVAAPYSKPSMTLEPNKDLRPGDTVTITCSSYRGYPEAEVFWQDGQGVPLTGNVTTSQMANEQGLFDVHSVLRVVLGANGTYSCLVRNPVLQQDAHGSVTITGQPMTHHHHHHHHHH

[6] = target: T6, cynomolgus monkey B7-H3 (novoprotein CA61) (cynomolgus monkey); test: as above
T6 construct: Bought protein

[7] = target: T7, mouse B7-H3 (SinoBiological, 50973-M08H) (mouse, UniProt Q8VE98 29-244); test: ELISA, antigen coated at 2 µg/mL, Antibody V3 in 2-fold dilutions (EC50 cell in Table 12: NA)
T7 construct: Bought protein
T7 sequence (looked up): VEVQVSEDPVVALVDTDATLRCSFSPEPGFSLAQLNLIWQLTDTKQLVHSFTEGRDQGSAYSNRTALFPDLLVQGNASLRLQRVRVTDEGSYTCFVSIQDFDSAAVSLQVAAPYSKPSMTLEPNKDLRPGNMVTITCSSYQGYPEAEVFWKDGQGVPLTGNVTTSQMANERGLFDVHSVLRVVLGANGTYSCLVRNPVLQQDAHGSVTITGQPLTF

antigen hB7-H3-His [8] = target: T5, antigen hB7-H3-His; test: SPR, BiaCore T200, ADC or antibody captured on Protein A chip, hB7-H3-His as analyte, 1:1 model
[9] = target: T1, Lag3 (NCBI Reference Sequence: …); test: flow cytometry on Lag3-CHO cells; blank P3 0.5%; the filing says V1-V5 did not bind
[10] = target: T2, Tim3 (NCBI Reference Sequence: …); test: flow cytometry on Tim3-CHO cells; blank P3 0.2%; the filing says V1-V5 did not bind
[11] = target: T3, VISTA (NCBI Reference Sequence: …); test: flow cytometry on VISTA-CHO cells; blank P3 0.1%; the filing says V1-V5 did not bind
antigen hB7-H3-His [12] = target: T5, antigen hB7-H3-His; test: SPR, BiaCore T200, ADC or antibody captured on Protein A chip, hB7-H3-His as analyte, 1:1 model; naked Antibody V3, not conjugated
hB7-H3-Fc = target: T8, hB7-H3-Fc; test: ELISA on coated hB7-H3-Fc (2 ug/mL), HRP anti-human kappa secondary, A450, antibody from 300 nM in 3-fold dilutions; axis 'Concentration' has no unit, nM from p-1066
T8 construct: also called antigen hB7-H3-Fc
T8 sequence (fusion chain, as listed by the source limits assumed): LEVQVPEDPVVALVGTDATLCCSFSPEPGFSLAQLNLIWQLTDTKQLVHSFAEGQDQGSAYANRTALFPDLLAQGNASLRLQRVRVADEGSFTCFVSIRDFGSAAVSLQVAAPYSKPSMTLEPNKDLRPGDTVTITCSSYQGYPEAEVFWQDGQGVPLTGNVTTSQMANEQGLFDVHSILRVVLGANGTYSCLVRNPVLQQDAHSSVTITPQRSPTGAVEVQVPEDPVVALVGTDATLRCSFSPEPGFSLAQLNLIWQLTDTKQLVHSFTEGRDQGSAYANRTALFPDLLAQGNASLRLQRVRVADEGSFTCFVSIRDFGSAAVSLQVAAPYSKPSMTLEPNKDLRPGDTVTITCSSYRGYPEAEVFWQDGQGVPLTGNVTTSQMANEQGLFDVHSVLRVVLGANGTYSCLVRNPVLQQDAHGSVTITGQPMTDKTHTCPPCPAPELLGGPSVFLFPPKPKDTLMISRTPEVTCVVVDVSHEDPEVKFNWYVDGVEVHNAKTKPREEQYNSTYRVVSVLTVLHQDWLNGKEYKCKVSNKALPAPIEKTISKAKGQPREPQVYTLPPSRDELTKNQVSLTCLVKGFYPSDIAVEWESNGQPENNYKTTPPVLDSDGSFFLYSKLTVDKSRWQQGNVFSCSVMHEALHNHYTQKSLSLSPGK

binding result [1]: no binding (tested: 100 nM)
binding result [2]: no binding (tested: 100 nM)
binding result [3]: no binding (tested: 100 nM)
% of cells in gate V1-R at 0.411 nM [4]: 36.8%
% of cells in gate V1-R at 1.23 nM [4]: 86.4%
% of cells in gate V1-R at 3.7 nM [4]: 94%
% of cells in gate V1-R at 11.11 nM [4]: 97.2%
% of cells in gate V1-R at 33.33 nM [4]: 98.9%
% of cells in gate V1-R at 100 nM [4]: 99.6%
EC50 (antigen hB7-H3-His [5]): 0.042 µg/mL
EC50 [6]: 0.042 µg/mL
koff (antigen hB7-H3-His [8]): 0.000155 s⁻¹
kon (antigen hB7-H3-His [8]): 886000 M⁻¹ s⁻¹
% of cells in gate P3 at 100 nM [9]: 0.6%
% of cells in gate P3 at 100 nM [10]: 0.4%
% of cells in gate P3 at 100 nM [11]: 0.7%
Kd (antigen hB7-H3-His [12]): 0.175 nM
EC50 (hB7-H3-Fc): 1.77 nM
B1: Antibody V3 (antibody, human IgG1, kappa, V domains shown)
VH: EVQLVQSGAEVKKSGESLKISCKASGYTFTDYDINWVRQMPGKGLEWIGWIFPGDDTTKYNEKFKGQVTLSADKSTNTAYMQWSSLKASDTAMYYCARSPSFDYWGQGTLVTVSS
VL: QIVLTQSPGTLSLSPGERATLSCSASSTIGFMYWYQQKPGQAPRRWIYDTSKLASGVPDRFSGSGSGTDYTLTISRLEPEDFAVYYCHQRSSYPTFGQGTKVEIKR
notes: Humanized from chimeric antibody M1; also called humanized antibody V3
binding result [7]: no binding (tested: initial concentration of 2 µg/mL)
